Results reported in the supplement of paper PMC9112550, “Optimization of the antimicrobial peptide Bac7 by deep mutational scanning” (BMC Biology, 2022).
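Further: peptides expressed intracellularly from a pBAD plasmid library in pooled LB shake-flask culture, induced with 0.3% L-arabinose, DNA abundance read by NGS, three biological replicates, DESeq2 with apeglm shrinkage.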

The sequences below were run on Escherichia coli TOP10 (assay: shrunken log2 fold change of peptide-encoding DNA abundance (4.5 h post-induction vs induction); higher = less antimicrobial activity (less host growth inhibition)). Settings: time post-induction: 4.5 h; library: site-saturation at positions 5, 18, 19, 20.
RRIRWRPPRLPRPRPRPNCYPRP was tested, and the “shrunken log2 fold change” value was -0.0773. For RRIRARPPRLPRPRPRPERHPRP, the “shrunken log2 fold change” value was 0.58. In the case of RRIRTRPPRLPRPRPRPPTYPRP, the “shrunken log2 fold change” value is reported as -0.149. RRIRSRPPRLPRPRPRPRYEPRP was tested, and the “shrunken log2 fold change” value was -0.12. For RRIRLRPPRLPRPRPRPFFTPRP, the “shrunken log2 fold change” value was -0.144. For RRIRVRPPRLPRPRPRPHNYPRP, the “shrunken log2 fold change” value was -0.181. In the case of RRIRPRPPRLPRPRPRPIYQPRP, the “shrunken log2 fold change” value is reported as -0.35. With RRIRFRPPRLPRPRPRPFACPRP the “shrunken log2 fold change” value was -0.189. With RRIRSRPPRLPRPRPRPGSEPRP the “shrunken log2 fold change” value was 0.593. RRIRYRPPRLPRPRPRPFFDPRP was tested, and the “shrunken log2 fold change” value was 1.09. With RRIRERPPRLPRPRPRPTVSPRP the “shrunken log2 fold change” value was -0.137. RRIRDRPPRLPRPRPRPFHEPRP was tested, and the “shrunken log2 fold change” value was -0.048. In the case of RRIRCRPPRLPRPRPRPVALPRP, the “shrunken log2 fold change” value is reported as 0.0824. In the case of RRIRVRPPRLPRPRPRPCQVPRP, the “shrunken log2 fold change” value is reported as -0.0502. RRIRQRPPRLPRPRPRPTSFPRP was tested, and the “shrunken log2 fold change” value was -0.0413. In the case of RRIRNRPPRLPRPRPRPWDLPRP, the “shrunken log2 fold change” value is reported as 0.0191. With RRIRERPPRLPRPRPRPEEAPRP the “shrunken log2 fold change” value was 0.353. RRIRNRPPRLPRPRPRPAKCPRP was tested, and the “shrunken log2 fold change” value was -0.384. With RRIRQRPPRLPRPRPRPGLDPRP the “shrunken log2 fold change” value was 0.255. With RRIRIRPPRLPRPRPRPITGPRP the “shrunken log2 fold change” value was -0.0492. For RRIRERPPRLPRPRPRPQASPRP, the “shrunken log2 fold change” value was -0.328. RRIRHRPPRLPRPRPRPQQRPRP was tested, and the “shrunken log2 fold change” value was 0.403. In the case of RRIRKRPPRLPRPRPRPGGLPRP, the “shrunken log2 fold change” value is reported as 0.0184. For RRIRVRPPRLPRPRPRPCPPPRP, the “shrunken log2 fold change” value was -0.216. RRIRVRPPRLPRPRPRPTKTPRP was tested, and the “shrunken log2 fold change” value was 0.0337. With RRIRWRPPRLPRPRPRPFNCPRP the “shrunken log2 fold change” value was -0.118. For RRIRLRPPRLPRPRPRPKQHPRP, the “shrunken log2 fold change” value was -0.103. In the case of RRIRQRPPRLPRPRPRPKQWPRP, the “shrunken log2 fold change” value is reported as 0.293. RRIRARPPRLPRPRPRPYYFPRP was tested, and the “shrunken log2 fold change” value was -0.701. In the case of RRIRIRPPRLPRPRPRPVFNPRP, the “shrunken log2 fold change” value is reported as -0.602. In the case of RRIRFRPPRLPRPRPRPWKYPRP, the “shrunken log2 fold change” value is reported as -0.411. For RRIRWRPPRLPRPRPRPDATPRP, the “shrunken log2 fold change” value was 2.57. RRIRCRPPRLPRPRPRPIQLPRP was tested, and the “shrunken log2 fold change” value was -0.0847. RRIRYRPPRLPRPRPRPYLMPRP was tested, and the “shrunken log2 fold change” value was -0.254. With RRIRTRPPRLPRPRPRPHWRPRP the “shrunken log2 fold change” value was 0.027. With RRIRTRPPRLPRPRPRPTWFPRP the “shrunken log2 fold change” value was -0.0683. With RRIRPRPPRLPRPRPRPLERPRP the “shrunken log2 fold change” value was 0.277. In the case of RRIRHRPPRLPRPRPRPICPPRP, the “shrunken log2 fold change” value is reported as -0.144. With RRIRVRPPRLPRPRPRPAIDPRP the “shrunken log2 fold change” value was 0.0602. RRIRQRPPRLPRPRPRPYLNPRP was tested, and the “shrunken log2 fold change” value was -0.329. RRIRTRPPRLPRPRPRPACGPRP was tested, and the “shrunken log2 fold change” value was 0.282. RRIRFRPPRLPRPRPRPKAVPRP was tested, and the “shrunken log2 fold change” value was -0.00146. In the case of RRIRFRPPRLPRPRPRPAMWPRP, the “shrunken log2 fold change” value is reported as 0.0848. For RRIRYRPPRLPRPRPRPVIMPRP, the “shrunken log2 fold change” value was -0.222. For RRIRCRPPRLPRPRPRPSDNPRP, the “shrunken log2 fold change” value was -0.66. In the case of RRIRYRPPRLPRPRPRPGHCPRP, the “shrunken log2 fold change” value is reported as -0.0945. With RRIRARPPRLPRPRPRPNKAPRP the “shrunken log2 fold change” value was 0.00219. RRIRNRPPRLPRPRPRPEGHPRP was tested, and the “shrunken log2 fold change” value was 0.00677. For RRIRIRPPRLPRPRPRPVYWPRP, the “shrunken log2 fold change” value was -0.208. RRIRYRPPRLPRPRPRPTRKPRP was tested, and the “shrunken log2 fold change” value was 0.00746. For RRIRCRPPRLPRPRPRPYVIPRP, the “shrunken log2 fold change” value was -0.381. In the case of RRIRMRPPRLPRPRPRPDYCPRP, the “shrunken log2 fold change” value is reported as -0.369. For RRIRNRPPRLPRPRPRPCFIPRP, the “shrunken log2 fold change” value was -0.86. For RRIRCRPPRLPRPRPRPQHHPRP, the “shrunken log2 fold change” value was -0.46. With RRIRCRPPRLPRPRPRPCNNPRP the “shrunken log2 fold change” value was -0.31. For RRIRARPPRLPRPRPRPNREPRP, the “shrunken log2 fold change” value was 0.226. With RRIRTRPPRLPRPRPRPHFRPRP the “shrunken log2 fold change” value was -0.284. With RRIRPRPPRLPRPRPRPWRDPRP the “shrunken log2 fold change” value was -0.00123. RRIRQRPPRLPRPRPRPARGPRP was tested, and the “shrunken log2 fold change” value was 0.126. RRIRVRPPRLPRPRPRPSINPRP was tested, and the “shrunken log2 fold change” value was -0.243. For RRIRERPPRLPRPRPRPNIEPRP, the “shrunken log2 fold change” value was -0.136. In the case of RRIRKRPPRLPRPRPRPQPYPRP, the “shrunken log2 fold change” value is reported as -0.157. In the case of RRIRWRPPRLPRPRPRPTDMPRP, the “shrunken log2 fold change” value is reported as 0.00348. With RRIRWRPPRLPRPRPRPDMVPRP the “shrunken log2 fold change” value was 0.0298. For RRIRVRPPRLPRPRPRPEDGPRP, the “shrunken log2 fold change” value was -0.263. In the case of RRIRERPPRLPRPRPRPEADPRP, the “shrunken log2 fold change” value is reported as 0.0032. RRIRRRPPRLPRPRPRPINAPRP was tested, and the “shrunken log2 fold change” value was 0.185. In the case of RRIRFRPPRLPRPRPRPPDHPRP, the “shrunken log2 fold change” value is reported as 0.28. RRIRQRPPRLPRPRPRPEAPPRP was tested, and the “shrunken log2 fold change” value was 0.6. With RRIRARPPRLPRPRPRPIDHPRP the “shrunken log2 fold change” value was -0.00706. RRIRRRPPRLPRPRPRPNYCPRP was tested, and the “shrunken log2 fold change” value was -0.25. With RRIRTRPPRLPRPRPRPAVKPRP the “shrunken log2 fold change” value was 0.106. In the case of RRIRHRPPRLPRPRPRPNCPPRP, the “shrunken log2 fold change” value is reported as -0.152. For RRIRARPPRLPRPRPRPVASPRP, the “shrunken log2 fold change” value was 0.595. RRIRIRPPRLPRPRPRPPPKPRP was tested, and the “shrunken log2 fold change” value was 0.46.
